Patent US20190040149A1 (Innovent, published 2019)
Residue numbers refer to the chain shown, from its start. Values belong to the binder of their own block, whether it stands above or below them.

How the values were obtained:
[1] = target: T1, murine PD-1 on CHO cells (mouse, UniProt Q02242 25-288); test: flow cytometry on CHO cells with murine PD-1
T1 sequence: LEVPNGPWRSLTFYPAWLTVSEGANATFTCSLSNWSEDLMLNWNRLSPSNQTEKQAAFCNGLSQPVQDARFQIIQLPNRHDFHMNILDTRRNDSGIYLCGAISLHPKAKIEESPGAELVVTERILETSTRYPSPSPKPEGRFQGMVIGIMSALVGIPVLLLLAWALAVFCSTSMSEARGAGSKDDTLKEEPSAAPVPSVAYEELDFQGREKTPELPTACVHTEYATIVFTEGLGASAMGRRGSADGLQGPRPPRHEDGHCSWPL
Experimental: (§1) Cells are then washed 3×, and are incubated with a secondary antibody (PE-labelled, at final concentration of 5 μg/ml) in PBS 1% BSA for 30 min on ice (protected from light). Cells are washed 3× and analyzed via flow cytometry. Flow cytometry is performed on an Accuri C6 system (BD Biosciences) and MFIs are calculated on the C6 software. EC50 s are calculated on Graphpad software.

[2] = target: T2, human PD-1 (soluble antigen of the MSD assay, b-PD-1 monomer) (human, UniProt Q15116 25-170, limits assumed, biotinylated (b-PD-1), site not stated); test: MSD solution equilibrium titration, avid KD
T2 construct: The antigen format of the 'avid' measurement is not described
T2 sequence (Q15116 25-170 limits assumed): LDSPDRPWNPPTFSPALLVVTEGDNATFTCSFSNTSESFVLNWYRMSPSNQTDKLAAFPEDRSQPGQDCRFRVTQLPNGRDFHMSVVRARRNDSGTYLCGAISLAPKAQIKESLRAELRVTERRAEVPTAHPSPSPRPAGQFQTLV
Experimental: (§2) Equilibrium affinity measurements are performed as previously described (Estep, P., et al., MAbs, 2013. 5(2): p. 270-8). Solution equilibrium titrations (SET) are performed in PBS+0.1% IgG-Free BSA (PBSF) where antigen (b-PD-1 monomer) is held constant at 10-100 pM and is incubated with 3- to 5-fold serial dilutions of Fab or mAbs starting at 5-100 nM (experimental condition is sample dependent). Antibodies diluted at 20 nM in PBS are coated onto standard bind MSD-ECL plates overnight at 4° C. or at room temperature for 30 min. Plates are blocked with BSA for 30 min whilst shaking at 700 rpm. Plates are then washed 3× with wash buffer (PBSF+0.05% Tween 20). SET samples are applied and incubated on the plates for 150 s with shaking at 700 rpm followed by one wash. Antigen captured on a plate is detected with 250 ng/mL sulfotag-labeled streptavidin in PBSF by incubation on the plate for 3 min. The plates are washed three times with wash buffer and are then read on the MSD Sector Imager 2400 instrument using 1× Read Buffer T with surfactant. The percent free antigen is plotted as a function of titrated antibody in Prism and fit to a quadratic equation to extract the KD. To improve throughput, liquid handling robots are used throughout MSD-SET experiments, including for SET sample preparation.

[3] = target: T2, human PD-1 (soluble antigen of the MSD …); test: MSD solution equilibrium titration, monovalent KD
Experimental: as §2

[4] = target: T3, murine PD-1 (soluble antigen of the MSD assay) (mouse, UniProt Q02242 25-169, limits assumed); test: MSD solution equilibrium titration, monovalent KD
T3 construct: also called mouse PD-1
T3 sequence: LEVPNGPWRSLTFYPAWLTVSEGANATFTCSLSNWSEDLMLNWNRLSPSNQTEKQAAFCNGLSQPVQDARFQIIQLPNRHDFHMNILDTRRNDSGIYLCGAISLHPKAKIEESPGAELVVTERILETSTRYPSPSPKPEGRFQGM
Experimental: as §2

[5] = target: T4, human PD-1_HIS (human, UniProt Q15116 25-167, limits assumed); test: bio-layer interferometry (ForteBio), human PD-1_HIS in solution, IgG on sensor tip
T4 construct: not shown: His tag
T4 sequence (Q15116 25-167 limits assumed): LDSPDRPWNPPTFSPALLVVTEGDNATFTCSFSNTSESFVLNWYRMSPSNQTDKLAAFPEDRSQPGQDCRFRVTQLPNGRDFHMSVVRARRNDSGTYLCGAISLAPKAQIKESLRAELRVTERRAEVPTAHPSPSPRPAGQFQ
Experimental: Briefly, ForteBio affinity measurements were performed by loading IgGs online onto AHQ sensors. Sensors were equilibrated off-line in assay buffer for 30 min and then monitored on-line for 60 seconds for baseline establishment. Sensors with loaded IgGs were exposed to 100 nM antigen for 5 min, afterwards they were transferred to assay buffer for 5 min for off-rate measurement. Kinetics was analyzed using the 1:1 binding model.

[6] = target: cyno PD-1_Fc (cyno); test: bio-layer interferometry (ForteBio), Fab in solution, cyno PD-1_Fc on sensor tip
[7] = target: T5, human PD-1_Fc (human, UniProt Q15116 25-167, limits assumed); test: bio-layer interferometry (ForteBio), Fab in solution, human PD-1_Fc on sensor tip
T5 construct: not shown: Fc part
T5 sequence (Q15116 25-167 limits assumed): as above

[8] = target: T6, murine PD-1_Fc (mouse, UniProt Q02242 25-167, limits assumed); test: bio-layer interferometry (ForteBio), Fab in solution, murine PD-1_Fc on sensor tip
T6 construct: not shown: Fc part
T6 sequence: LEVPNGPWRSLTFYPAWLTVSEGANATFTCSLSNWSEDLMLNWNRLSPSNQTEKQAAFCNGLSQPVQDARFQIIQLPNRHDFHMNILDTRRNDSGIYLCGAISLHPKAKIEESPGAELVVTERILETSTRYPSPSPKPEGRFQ

[9] = target: T3, murine PD-1 (soluble antigen of the MSD …); test: MSD solution equilibrium titration, avid KD
Experimental: as §2

[10] = target: T7, human PD-1 on cells (CHO cells; T cells in the mixed lymphocyte reaction) (human, UniProt Q15116 25-288); test: cell-based or functional assay
T7 sequence (Q15116 25-288 limits assumed): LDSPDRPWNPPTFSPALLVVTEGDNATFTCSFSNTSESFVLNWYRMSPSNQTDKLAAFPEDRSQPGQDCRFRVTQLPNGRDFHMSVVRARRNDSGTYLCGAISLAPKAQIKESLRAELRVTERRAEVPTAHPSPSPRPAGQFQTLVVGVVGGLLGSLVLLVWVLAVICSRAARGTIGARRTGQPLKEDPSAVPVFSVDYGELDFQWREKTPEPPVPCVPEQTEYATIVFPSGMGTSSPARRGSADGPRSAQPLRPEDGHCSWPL

[11] = target: T7, human PD-1 on cells (CHO cells; T cells …); test: cell-based or functional assay; remark: listed apart in the source
[12] = target: T7, human PD-1 on cells (CHO cells; T cells …); test: flow cytometry on CHO cells with human PD-1 (n=1)
Experimental: as §1

[13] = target: T7, human PD-1 on cells (CHO cells; T cells …); test: flow cytometry, remaining PD-L2-FITC signal after 100 nM antibody; competitor PD-L2-FITC
Experimental: CHO cells 0.2×10⁶ are incubated with the experimental antibody (100 nM) for 30 min in PBS 1% BSA on ice. […] Cells are washed 3× and analyzed via flow cytometry. Flow cytometry is performed on an Accuri C6 system (BD Biosciences) and MFIs are calculated on the C6 software. EC50 s are calculated on Graphpad software.

B1: Antibody D, IgG1 format expressed in yeast (antibody, V domains shown)
VH: QVQLVQSGAEVKKPGASVKVSCKASGYTFEKYYMHWVRQAPGQGLEWMGIINPDGGSTGYAQKFQGRVTMTRDTSTSTVYMELSSLRSEDTAVYYCAKEGVADGYGLVDVWGQGTMVTVSS
VL: EIVLTQSPATLSLSPGERATLSCRASQSVSSYLAWYQQKPGQAPRLLIYDASKRATGIPARFSGSGSGTDFTLTISSLEPEDFAVYYCDQRNNWPLTFGGGTKVEIK
notes: Tested in IgG1 format, expressed in yeast
EC50 [1]: 9.26 nM
Kd [2]: 0.035 nM
Kd [3]: 0.3 nM
Kd [4]: 2.3 nM
Kd [5]: 1.9 nM

B2: Fab of Antibody D (Fab, V domains shown)
VH: B1 VH
VL: B1 VL
notes: Fab in solution in BLI; also called Antibody D (Fab in solution)
Kd [6]: 4.4 nM
Kd [7]: 3.4 nM
Kd [8]: 7.8 nM

B3: Fab of Antibody C (Fab, V domains shown)
VH: B1 VH with E30T, K31A, Y32Q, D54S, S57E
VL: B1 VL
notes: Fab in solution in BLI; also called Antibody C (Fab in solution)
Kd [6]: 2.4 nM
Kd [7]: 2 nM
Kd [8]: 10 nM

B9: Antibody B, IgG1 format expressed in yeast (antibody, V domains shown)
VH: B1 VH with K31G, D54E, S57E, G59S, T76I, V79A, S85R, E89D
VL: B1 VL
notes: as for B1
EC50 [1]: 6.13 nM
Kd [2]: 0.014 nM
Kd [9]: 0.38 nM
Kd [3]: 0.13 nM
Kd [4]: 2.7 nM
Kd [5]: 1.4 nM

B11: Antibody A, IgG1 format expressed in yeast (antibody, V domains shown)
VH: B1 VH with E30T, K31S, D54S, G59S, V119I
VL: B1 VL
notes: as for B1
IL-2 in supernatant, 0.01 nM IgG [10]: 708 pg/mL
IL-2 in supernatant, 0.1 nM IgG [10]: 586 pg/mL
IL-2 in supernatant, 1 nM IgG [10]: 618 pg/mL
IL-2 in supernatant, 10 nM IgG [10]: 975 pg/mL
IL-2 in supernatant, 100 nM IgG [10]: 1410 pg/mL
IL-2 secretion fold change vs. IgG control, 0.01 nM IgG [10]: 1.37 fold
IL-2 secretion fold change vs. IgG control, 0.1 nM IgG [10]: 1.15 fold
IL-2 secretion fold change vs. IgG control, 1 nM IgG [10]: 1.23 fold
IL-2 secretion fold change vs. IgG control, 10 nM IgG [10]: 1.87 fold
IL-2 secretion fold change vs. IgG control, 100 nM IgG [10]: 2.28 fold
IFNg secretion fold change vs. IgG control, 0.01 nM IgG [11]: 1.49 fold
IFNg secretion fold change vs. IgG control, 0.1 nM IgG [11]: 1.49 fold
IFNg secretion fold change vs. IgG control, 1 nM IgG [11]: 1.11 fold
IFNg secretion fold change vs. IgG control, 10 nM IgG [11]: 1.37 fold
IFNg secretion fold change vs. IgG control, 100 nM IgG [11]: 1.52 fold
IFNγ in supernatant, 0.01 nM IgG [11]: 22100 pg/mL
IFNγ in supernatant, 0.1 nM IgG [11]: 16400 pg/mL
IFNγ in supernatant, 1 nM IgG [11]: 12900 pg/mL
IFNγ in supernatant, 10 nM IgG [11]: 18400 pg/mL
IFNγ in supernatant, 100 nM IgG [11]: 22600 pg/mL
EC50 [1]: 11 nM
Kd [2]: 0.049 nM
EC50 [12]: 10.2 nM
Kd [3]: 4.9 nM
Kd [4]: 9.6 nM
Kd [5]: 4.3 nM
MFI (PD-L2-FITC) [13]: 90900 MFI

Now from value to binder:

Kd [6]: 3.6 nM
Kd [7]: 3 nM
Kd [8]: 6.1 nM
B4: Fab of Antibody F (Fab, V domains shown)
VH: B1 VH with E30S, K31A
VL: B1 VL
notes: Fab in solution in BLI; also called Antibody F (Fab in solution)

Kd [6]: 14 nM
Kd [7]: 16 nM
Kd [8]: 33 nM
B5: Fab of Antibody A (Fab, V domains shown)
VH: B1 VH with E30T, K31S, D54S, G59S, V119I
VL: B1 VL
notes: Fab used in solution in the bio-layer interferometry columns 'Fab in solution'; also called Antibody A (Fab in solution)

EC50 [1]: 5.86 nM
Kd [2]: 0.018 nM
Kd [9]: 0.44 nM
Kd [3]: 0.17 nM
Kd [4]: 1.2 nM
Kd [5]: 1.6 nM
B6: Antibody F, IgG1 format expressed in yeast (antibody, V domains shown)
VH: B1 VH with E30S, K31A
VL: B1 VL
notes: as for B1

Kd [6]: 3.3 nM
Kd [7]: 2.7 nM
Kd [8]: 7.6 nM
B7: Fab of Antibody E (Fab, V domains shown)
VH: B1 VH with E30T, K31S, Y32N, D54S, G55E
VL: B1 VL
notes: Fab in solution in BLI; also called Antibody E (Fab in solution)

IL-2 in supernatant, 0.01 nM IgG [10]: 519 pg/mL
IL-2 in supernatant, 0.1 nM IgG [10]: 587 pg/mL
IL-2 in supernatant, 1 nM IgG [10]: 914 pg/mL
IL-2 in supernatant, 10 nM IgG [10]: 1190 pg/mL
IL-2 in supernatant, 100 nM IgG [10]: 1620 pg/mL
IL-2 secretion fold change vs. IgG control, 0.01 nM IgG [10]: 1.01 fold
IL-2 secretion fold change vs. IgG control, 0.1 nM IgG [10]: 1.15 fold
IL-2 secretion fold change vs. IgG control, 1 nM IgG [10]: 1.83 fold
IL-2 secretion fold change vs. IgG control, 10 nM IgG [10]: 2.29 fold
IL-2 secretion fold change vs. IgG control, 100 nM IgG [10]: 2.62 fold
IFNg secretion fold change vs. IgG control, 0.01 nM IgG [11]: 0.97 fold
IFNg secretion fold change vs. IgG control, 0.1 nM IgG [11]: 1.5 fold
IFNg secretion fold change vs. IgG control, 1 nM IgG [11]: 1.82 fold
IFNg secretion fold change vs. IgG control, 10 nM IgG [11]: 1.79 fold
IFNg secretion fold change vs. IgG control, 100 nM IgG [11]: 1.84 fold
IFNγ in supernatant, 0.01 nM IgG [11]: 14400 pg/mL
IFNγ in supernatant, 0.1 nM IgG [11]: 16500 pg/mL
IFNγ in supernatant, 1 nM IgG [11]: 21100 pg/mL
IFNγ in supernatant, 10 nM IgG [11]: 24100 pg/mL
IFNγ in supernatant, 100 nM IgG [11]: 27400 pg/mL
EC50 [1]: 2.88 nM
Kd [2]: 0.0093 nM
Kd [9]: 0.13 nM
EC50 [12]: 4.12 nM
Kd [3]: 0.12 nM
Kd [4]: 1.9 nM
Kd [5]: 1 nM
MFI (PD-L2-FITC) [13]: 30100 MFI
B8: Antibody C, IgG1 format expressed in yeast (antibody, V domains shown)
VH: B1 VH with E30T, K31A, Y32Q, D54S, S57E
VL: B1 VL
notes: as for B1

Kd [6]: 3.7 nM
Kd [7]: 2.7 nM
Kd [8]: 17 nM
B10: Fab of Antibody B (Fab, V domains shown)
VH: B1 VH with K31G, D54E, S57E, G59S, T76I, V79A, S85R, E89D
VL: B1 VL
notes: Fab in solution in BLI; also called Antibody B (Fab in solution)
